From patent publication US20160039904A1, “STABILIZED SINGLE HUMAN CD4 DOMAINS AND FUSION PROTEINS” (priority 2013, published 2016)

How the values were obtained:
Test in all cases: cell-based or functional assay
[1] = target: HIV-1 Env of isolate CNE4 (HIV-1)
[2] = target: HIV-1 Env of isolate CH91 (HIV-1)
[3] = target: HIV-1 Env of isolate CNE46 (HIV-1)
[4] = target: HIV-1 Env of isolate CNE40 (HIV-1)
[5] = target: HIV-1 Env of isolate CNE57 (HIV-1)
[6] = target: HIV-1 Env of isolate CNE49 (HIV-1)
[7] = target: HIV-1 Env of isolate CNE16 (HIV-1)
[8] = target: HIV-1 Env of isolate CNE11 (HIV-1)
[9] = target: HIV-1 Env of isolate CNE58 (HIV-1)
[10] = target: HIV-1 Env of isolate CNE3 (HIV-1)
[11] = target: HIV-1 Env of isolate CNE1 (HIV-1)
[12] = target: HIV-1 Env of isolate CH70 (HIV-1)
[13] = target: HIV-1 Env of isolate CH117 (HIV-1)
[14] = target: HIV-1 Env of isolate CNE20 (HIV-1)
[15] = target: HIV-1 Env of isolate GX2010.36 (HIV-1)
[16] = target: HIV-1 Env of isolate AE03 (HIV-1)
[17] = target: HIV-1 Env of isolate CH119 (HIV-1)
[18] = target: HIV-1 Env of isolate CH110 (HIV-1)
[19] = target: HIV-1 Env of isolate CNE23 (HIV-1)
[20] = target: HIV-1 Env of isolate CNE30 (HIV-1)
[21] = target: HIV-1 Env of isolate CNE5 (HIV-1)
[22] = target: HIV-1 Env of isolate CNE9 (HIV-1)
[23] = target: HIV-1 Env of isolate CNE14 (HIV-1)
[24] = target: HIV-1 Env of isolate CNE15 (HIV-1)
[25] = target: HIV-1 Env of isolate CNE64 (HIV-1)
[26] = target: HIV-1 Env of isolate CNE53 (HIV-1)
[27] = target: HIV-1 Env of isolate CH120 (HIV-1)
[28] = target: HIV-1 Env of isolate CNE59 (HIV-1)
[29] = target: HIV-1 Env of isolate CNE66 (HIV-1)
[30] = target: HIV-1 Env of isolate CNE17 (HIV-1)
[31] = target: HIV-1 Env of isolate CNE65 (HIV-1)
[32] = target: HIV-1 Env of isolate YN192.31 (HIV-1)
[33] = target: HIV-1 Env of isolate CNE47 (HIV-1)
[34] = target: HIV-1 Env of isolate CH64 (HIV-1)
[35] = target: HIV-1 Env of isolate CH114 (HIV-1)
[36] = target: HIV-1 Env of isolate CNE68 (HIV-1)
[37] = target: HIV-1 Env of isolate CNE7 (HIV-1)
[38] = target: HIV-1 Env of isolate CNE107 (HIV-1)
[39] = target: HIV-1 Env of isolate AE20 (HIV-1)
[40] = target: HIV-1 Env of isolate CNE55 (HIV-1)
[41] = target: HIV-1 Env of isolate CNE6 (HIV-1)

## T20 (enfuvirtide) (peptide)
[1]
  neutralization IC50: 1.7 nM
  neutralization IC90: 14 nM
[2]
  neutralization IC50: 8.6 nM
  neutralization IC90: 310 nM
[3]
  neutralization IC50: 26 nM
  neutralization IC90: 743 nM
[4]
  neutralization IC50: 4.9 nM
  neutralization IC90: 108 nM
[5]
  neutralization IC50: 2.5 nM
  neutralization IC90: 24 nM
[6]
  neutralization IC50: 9.1 nM
  neutralization IC90: 236 nM
[7]
  neutralization IC50: 14 nM
  neutralization IC90: 169 nM
[8]
  neutralization IC50: 3.5 nM
  neutralization IC90: 36 nM
[9]
  neutralization IC50: 54 nM
  neutralization IC90: 745 nM
[10]
  neutralization IC50: 5.6 nM
  neutralization IC90: 38 nM
[11]
  neutralization IC50: 1.6 nM
  neutralization IC90: 17 nM
[12]
  neutralization IC50: 65 nM
  neutralization IC90: > 750 nM
[13]
  neutralization IC50: 2.3 nM
  neutralization IC90: 34 nM
[14]
  neutralization IC50: 5.5 nM
  neutralization IC90: 41 nM
[15]
  neutralization IC50: 255 nM
  neutralization IC90: > 750 nM
[16]
  neutralization IC50: 304 nM
  neutralization IC90: 510 nM
[17]
  neutralization IC50: 2 nM
  neutralization IC90: 25 nM
[18]
  neutralization IC50: 4.3 nM
  neutralization IC90: 262 nM
[19]
  neutralization IC50: 15 nM
  neutralization IC90: 228 nM
[20]
  neutralization IC50: 26 nM
  neutralization IC90: 285 nM
[21]
  neutralization IC50: 2.1 nM
  neutralization IC90: 19 nM
[22]
  neutralization IC50: 1.7 nM
  neutralization IC90: 14 nM
[23]
  neutralization IC50: 9.7 nM
  neutralization IC90: 305 nM
[24]
  neutralization IC50: 14 nM
  neutralization IC90: 157 nM
[25]
  neutralization IC50: 1.9 nM
  neutralization IC90: 16 nM
[26]
  neutralization IC50: 51 nM
  neutralization IC90: 721 nM
[27]
  neutralization IC50: 11 nM
  neutralization IC90: 443 nM
[28]
  neutralization IC50: 1.4 nM
  neutralization IC90: 17 nM
[29]
  neutralization IC50: 129 nM
  neutralization IC90: 729 nM
[30]
  neutralization IC50: 42 nM
  neutralization IC90: 676 nM
[31]
  neutralization IC50: 5.9 nM
  neutralization IC90: 78 nM
[32]
  neutralization IC50: 42 nM
  neutralization IC90: 336 nM
[33]
  neutralization IC50: 4.9 nM
  neutralization IC90: 42 nM
[34]
  neutralization IC50: 3.1 nM
  neutralization IC90: 25 nM
[35]
  neutralization IC50: 102 nM
  neutralization IC90: > 750 nM
[36]
  neutralization IC50: 32 nM
  neutralization IC90: 321 nM
[37]
  neutralization IC50: 4.3 nM
  neutralization IC90: 58 nM
[38]
  neutralization IC50: 3.8 nM
  neutralization IC90: 45 nM
[39]
  neutralization IC50: 212 nM
  neutralization IC90: 572 nM
[40]
  neutralization IC50: 26 nM
  neutralization IC90: 549 nM
[41]
  neutralization IC50: 1.4 nM
  neutralization IC90: 15 nM

## 4Dm2m (Fc fusion)
[1]
  neutralization IC50: 0.11 nM
  neutralization IC90: 2.4 nM
[2]
  neutralization IC50: 0.39 nM
  neutralization IC90: 10 nM
[3]
  neutralization IC50: 0.27 nM
  neutralization IC90: 9.4 nM
[4]
  neutralization IC50: 0.01 nM
  neutralization IC90: 0.11 nM
[5]
  neutralization IC50: 1.2 nM
  neutralization IC90: 19 nM
[6]
  neutralization IC50: 0.05 nM
  neutralization IC90: 0.56 nM
[7]
  neutralization IC50: 0.08 nM
  neutralization IC90: 1.2 nM
[8]
  neutralization IC50: 0.33 nM
  neutralization IC90: 2.6 nM
[9]
  neutralization IC50: 2.1 nM
  neutralization IC90: > 28 nM
[10]
  neutralization IC50: 0.39 nM
  neutralization IC90: 2.8 nM
[11]
  neutralization IC50: 0.11 nM
  neutralization IC90: 0.61 nM
[12]
  neutralization IC50: 0.11 nM
  neutralization IC90: 1.2 nM
[13]
  neutralization IC50: 0.33 nM
  neutralization IC90: 15 nM
[14]
  neutralization IC50: 0.05 nM
  neutralization IC90: 5.3 nM
[15]
  neutralization IC50: 0.11 nM
  neutralization IC90: 18 nM
[16]
  neutralization IC50: 0.67 nM
  neutralization IC90: 12 nM
[17]
  neutralization IC50: 0.17 nM
  neutralization IC90: 3.4 nM
[18]
  neutralization IC50: 0.11 nM
  neutralization IC90: 0.83 nM
[19]
  neutralization IC50: 0.49 nM
  neutralization IC90: 4.9 nM
[20]
  neutralization IC50: 0.07 nM
  neutralization IC90: 0.44 nM
[21]
  neutralization IC50: 0.67 nM
  neutralization IC90: 8.7 nM
[22]
  neutralization IC50: 0.22 nM
  neutralization IC90: 3.2 nM
[23]
  neutralization IC50: 0.17 nM
  neutralization IC90: 2.4 nM
[24]
  neutralization IC50: 0.29 nM
  neutralization IC90: 2.6 nM
[25]
  neutralization IC50: 0.56 nM
  neutralization IC90: 3.2 nM
[26]
  neutralization IC50: 0.24 nM
  neutralization IC90: 5.5 nM
[27]
  neutralization IC50: 0.33 nM
  neutralization IC90: 6.6 nM
[28]
  neutralization IC50: 0.17 nM
  neutralization IC90: 2.7 nM
[29]
  neutralization IC50: 0.17 nM
  neutralization IC90: 7.7 nM
[30]
  neutralization IC50: 0.11 nM
  neutralization IC90: 2.4 nM
[31]
  neutralization IC50: 0.28 nM
  neutralization IC90: 3.3 nM
[32]
  neutralization IC50: 0.89 nM
  neutralization IC90: 21 nM
[33]
  neutralization IC50: 0.11 nM
  neutralization IC90: 2.8 nM
[34]
  neutralization IC50: 0.17 nM
  neutralization IC90: 1.6 nM
[35]
  neutralization IC50: 0.11 nM
  neutralization IC90: 4 nM
[36]
  neutralization IC50: 0.11 nM
  neutralization IC90: 0.78 nM
[37]
  neutralization IC50: 0.18 nM
  neutralization IC90: 1.8 nM
[38]
  neutralization IC50: 0.52 nM
  neutralization IC90: 18 nM
[39]
  neutralization IC50: 0.72 nM
  neutralization IC90: 5.8 nM
[40]
  neutralization IC50: 0.45 nM
  neutralization IC90: 10 nM
[41]
  neutralization IC50: 0.33 nM
  neutralization IC90: 2.3 nM

## C34 (peptide)
[1]
  neutralization IC50: 6.3 nM
  neutralization IC90: 23 nM
[2]
  neutralization IC50: 2.3 nM
  neutralization IC90: 12 nM
[3]
  neutralization IC50: 6.4 nM
  neutralization IC90: 115 nM
[4]
  neutralization IC50: 0.77 nM
  neutralization IC90: 7.8 nM
[5]
  neutralization IC50: 2 nM
  neutralization IC90: 14 nM
[6]
  neutralization IC50: 2.3 nM
  neutralization IC90: 12 nM
[7]
  neutralization IC50: 11 nM
  neutralization IC90: 51 nM
[8]
  neutralization IC50: 4.6 nM
  neutralization IC90: 42 nM
[9]
  neutralization IC50: 2 nM
  neutralization IC90: 13 nM
[10]
  neutralization IC50: 7.1 nM
  neutralization IC90: 71 nM
[11]
  neutralization IC50: 0.73 nM
  neutralization IC90: 6.8 nM
[12]
  neutralization IC50: 7.6 nM
  neutralization IC90: 84 nM
[13]
  neutralization IC50: 0.6 nM
  neutralization IC90: 3.2 nM
[14]
  neutralization IC50: 3.3 nM
  neutralization IC90: 14 nM
[15]
  neutralization IC50: 15 nM
  neutralization IC90: 165 nM
[16]
  neutralization IC50: 24 nM
  neutralization IC90: 85 nM
[17]
  neutralization IC50: 3.3 nM
  neutralization IC90: 20 nM
[18]
  neutralization IC50: 0.78 nM
  neutralization IC90: 6.3 nM
[19]
  neutralization IC50: 2.1 nM
  neutralization IC90: 18 nM
[20]
  neutralization IC50: 14 nM
  neutralization IC90: 110 nM
[21]
  neutralization IC50: 5.9 nM
  neutralization IC90: 63 nM
[22]
  neutralization IC50: 0.87 nM
  neutralization IC90: 5.8 nM
[23]
  neutralization IC50: 3.9 nM
  neutralization IC90: 17 nM
[24]
  neutralization IC50: 3.8 nM
  neutralization IC90: 22 nM
[25]
  neutralization IC50: 5.1 nM
  neutralization IC90: 21 nM
[26]
  neutralization IC50: 2 nM
  neutralization IC90: 23 nM
[27]
  neutralization IC50: 4.6 nM
  neutralization IC90: 39 nM
[28]
  neutralization IC50: 3.4 nM
  neutralization IC90: 28 nM
[29]
  neutralization IC50: 2.1 nM
  neutralization IC90: 11 nM
[30]
  neutralization IC50: 3.2 nM
  neutralization IC90: 82 nM
[31]
  neutralization IC50: 3.1 nM
  neutralization IC90: 16 nM
[32]
  neutralization IC50: 27 nM
  neutralization IC90: 225 nM
[33]
  neutralization IC50: 1.9 nM
  neutralization IC90: 14 nM
[34]
  neutralization IC50: 1.2 nM
  neutralization IC90: 6.7 nM
[35]
  neutralization IC50: 5.4 nM
  neutralization IC90: 25 nM
[36]
  neutralization IC50: 2.2 nM
  neutralization IC90: 12 nM
[37]
  neutralization IC50: 6.4 nM
  neutralization IC90: 22 nM
[38]
  neutralization IC50: 2.8 nM
  neutralization IC90: 32 nM
[39]
  neutralization IC50: 7.4 nM
  neutralization IC90: 69 nM
[40]
  neutralization IC50: 7.9 nM
  neutralization IC90: 103 nM
[41]
  neutralization IC50: 1.6 nM
  neutralization IC90: 15 nM
